Reference: patent US7026443

These binders were tested against HLA-A*0301 (human) (assay: competition with 125I-labelled standard peptide for purified HLA-A*0301, gel filtration). Settings: not given.

| Binder | relative binding ratio (IC50 of standard peptide / IC50 of test peptide) (ratio to standard peptide) | binding affinity ratio (IC50 of standard peptide / IC50 of test peptide) (ratio relative to standard peptide) | relative binding ratio (IC50 of standard peptide / IC50 of test peptide) |
| --- | --- | --- | --- |
| DSIPHAACH (modifications not checked) [HPV18 E6 peptide … (position 58, 9 amino acids)] | 0.0005 | – | – |
| EGTGCNGWF (modifications not checked) [HPV31 E1 peptide … (position 10, 9 amino acids)] | – | 0.0008 | – |
| ELRHYSDSVY (modifications not checked) [HPV18 E6 peptide … (position 77, 10 amino acids)] | 0.0002 | – | – |
| EGTGCNGWFY (modifications not checked) [HPV31 E1 peptide … (position 10, 10 amino acids)] | – | 0.0005 | – |
| RFEDPTRRPY (modifications not checked) [HPV18 E6 peptide … (position 3, 10 amino acids)] | – | – | 0.0002 |

These binders were tested against HLA-A*0301 (human) (assay: not given). Settings: not given.

| Binder | relative binding ratio (IC50 of standard peptide / IC50 of test peptide) (ratio to standard peptide) |
| --- | --- |
| CIDFYSRIR (modifications not checked) [HPV18 E6 peptide … (position 68, 9 amino acids)] | 0.0001 |
| DSVYGDTLEK (modifications not checked) [HPV18 E6 peptide … (position 83, 10 amino acids)] | 0.0005 |
| EVFEFAFK (modifications not checked) [HPV18 E6 peptide EVFEFAFK (position 43, 8 amino acids)] | 0.0025 |
| DIEITCVYCK (modifications not checked) [HPV18 E6 peptide … (position 27, 10 amino acids)] | 0.0089 |

What follows are binders tested against HLA-A*0301 (human) (assay: competition with 125I-labelled standard peptide for purified HLA, gel filtration). Settings: not given.

| Binder | binding affinity ratio (IC50 of standard peptide / IC50 of test peptide) (ratio relative to standard peptide) | relative binding ratio (IC50 of standard peptide / IC50 of test peptide) | binding affinity ratio (IC50 of standard peptide / IC50 of test peptide) | relative binding ratio (IC50 of standard peptide / IC50 of test peptide) (ratio to standard peptide) |
| --- | --- | --- | --- | --- |
| WLQPLADAK (modifications not checked) [… (HPV31 E1, position 489, 9 amino acids)] | 0.0005 | – | – | – |
| CIDFYSRIR (modifications not checked) [HPV18 E6 peptide … (position 68, 9 amino acids)] | – | 0.0001 | – | – |
| WTGRCMSCCR (modifications not checked) | – | – | 0.0003 | – |
| LLIRCINCQK (modifications not checked) | – | – | 0.021 | – |
| DIILECVYCK (modifications not checked) | – | – | 0.0065 | – |
| EVYDFAFR (modifications not checked) [HPV16 E6 peptide EVYDFAFR] | – | – | 0.0004 | – |
| MLIQPPKLR (modifications not checked) [… (HPV31 E1, position 285, 9 amino acids)] | 0.0005 | – | – | – |
| IILECVYCK (modifications not checked) | – | – | 0.0016 | – |
| CMCCKCEARIK (modifications not checked) [HPV18 E7 peptide … (position 63, 11 amino acids)] | – | 0.0014 | – | – |
| DSVYGDTLEK (modifications not checked) [HPV18 E6 peptide … (position 83, 10 amino acids)] | – | 0.0005 | – | – |
| LVRNFKSDK (modifications not checked) [HPV45 E1 215 …] | – | – | – | 0.0005 |
| NSNAAAFLK (modifications not checked) [HPV45 E1 379 …] | – | – | – | 0.0057 |
| NIRGRWTGR (modifications not checked) | – | – | 0.0014 | – |
| GLSFTDLVR (modifications not checked) [HPV45 E1 209 …] | – | – | – | 0.0009 |
| EVFEFAFK (modifications not checked) [HPV18 E6 peptide EVFEFAFK (position 43, 8 amino acids)] | – | 0.0025 | – | – |
| AVCDKCLK (modifications not checked) [HPV16 E6 peptide AVCDKCLK] | – | – | 0.0053 | – |
| GVLILALLR (modifications not checked) [HPV45 E1 265 …] | – | – | – | 0.0058 |
| CVQSTHVDIR (modifications not checked) | – | – | 0.0049 | – |
| PLCPEEKQR (modifications not checked) [HPV31 E6 peptide … (position 109, 9 amino acids; Seq. Id. No. 10308)] | – | 0.0002 | – | – |
| CVYCKQQLLR (modifications not checked) | – | – | 0.0001 | – |
| DIEITCVYCK (modifications not checked) [HPV18 E6 peptide … (position 27, 10 amino acids)] | – | 0.0089 | – | – |
| TMLCMCCK (modifications not checked) [HPV18 E7 peptide TMLCMCCK (position 60, 8 amino acids)] | – | 0.024 | – | – |
| PLCPEEKQR (modifications not checked) | – | – | 0.0002 | – |
| GTTLEQQYNK (modifications not checked) | – | – | 0.0002 | – |
| LILALLRYK (modifications not checked) [HPV45 E1 267 …] | – | – | – | 0.27 |

Same assay, conditions: remark: other sources report otherwise

| Binder | binding affinity ratio (IC50 of standard peptide / IC50 of test peptide) |
| --- | --- |
| AMFQDPQER (modifications not checked) | 0.017 |
| GIVCPICSQK (modifications not checked) | 0.0003 |

Each binder was assayed against HLA-A*1101 (human) in the same assay as above. Settings: not given.

| Binder | binding affinity ratio (IC50 of standard peptide / IC50 of test peptide) (ratio relative to standard peptide) | relative binding ratio (IC50 of standard peptide / IC50 of test peptide) | binding affinity ratio (IC50 of standard peptide / IC50 of test peptide) | relative binding ratio (IC50 of standard peptide / IC50 of test peptide) (ratio to standard peptide) |
| --- | --- | --- | --- | --- |
| WLQPLADAK (modifications not checked) [… (HPV31 E1, position 489, 9 amino acids)] | 0.0002 | – | – | – |
| CIDFYSRIR (modifications not checked) [HPV18 E6 peptide … (position 68, 9 amino acids)] | – | 0.0001 | – | – |
| WTGRCMSCCR (modifications not checked) | – | – | 0.0008 | – |
| LLIRCINCQK (modifications not checked) | – | – | 0.18 | – |
| KLRHLNEKRR (modifications not checked) [HPV18 E6 peptide … (position 117, 10 amino acids)] | – | 0.0001 | – | – |
| RARQERLQR (modifications not checked) [HPV18 E6 peptide … (position 144, 9 amino acids)] | – | 0.0002 | – | – |
| DIILECVYCK (modifications not checked) | – | – | 0.021 | – |
| EVYDFAFR (modifications not checked) [HPV16 E6 peptide EVYDFAFR] | – | – | 0.0025 | – |
| MLIQPPKLR (modifications not checked) [… (HPV31 E1, position 285, 9 amino acids)] | 0.0014 | – | – | – |
| IILECVYCK (modifications not checked) | – | – | 0.019 | – |
| CMCCKCEARIK (modifications not checked) [HPV18 E7 peptide … (position 63, 11 amino acids)] | – | 0.0002 | – | – |
| DSVYGDTLEK (modifications not checked) [HPV18 E6 peptide … (position 83, 10 amino acids)] | – | 0.0051 | – | – |
| LVRNFKSDK (modifications not checked) [HPV45 E1 215 …] | – | – | – | 0.0002 |
| NSNAAAFLK (modifications not checked) [HPV45 E1 379 …] | – | – | – | 0.37 |
| NIRGRWTGR (modifications not checked) | – | – | 0.0005 | – |
| GLSFTDLVR (modifications not checked) [HPV45 E1 209 …] | – | – | – | 0.0025 |
| EVFEFAFK (modifications not checked) [HPV18 E6 peptide EVFEFAFK (position 43, 8 amino acids)] | – | 0.018 | – | – |
| AVCDKCLK (modifications not checked) [HPV16 E6 peptide AVCDKCLK] | – | – | 0.011 | – |
| GVLILALLR (modifications not checked) [HPV45 E1 265 …] | – | – | – | 0.14 |
| CVQSTHVDIR (modifications not checked) | – | – | 0.0001 | – |
| PLCPEEKQR (modifications not checked) [HPV31 E6 peptide … (position 109, 9 amino acids; Seq. Id. No. 10308)] | – | 0.0005 | – | – |
| CVYCKQQLLR (modifications not checked) | – | – | 0.0005 | – |
| DIEITCVYCK (modifications not checked) [HPV18 E6 peptide … (position 27, 10 amino acids)] | – | 0.0021 | – | – |
| TMLCMCCK (modifications not checked) [HPV18 E7 peptide TMLCMCCK (position 60, 8 amino acids)] | – | 0.024 | – | – |
| PLCPEEKQR (modifications not checked) | – | – | 0.0005 | – |
| GTTLEQQYNK (modifications not checked) | – | – | 0.07 | – |
| LILALLRYK (modifications not checked) [HPV45 E1 267 …] | – | – | – | 0.18 |

Same assay, conditions: remark: other sources report otherwise

| Binder | binding affinity ratio (IC50 of standard peptide / IC50 of test peptide) |
| --- | --- |
| AMFQDPQER (modifications not checked) | 0.032 |
| GIVCPICSQK (modifications not checked) | 0.067 |
